B1: RE1-silencing transcription factor (Homo sapiens), Q13127 (parent)
chain: MATQVMGQSSGGGGLFTSSGNIGMALPNDMYDLHDLSKAELAAPQLIMLANVALTGEVNGSCCDYLVGEERQMAELMPVGDNNFSDSEEGEGLEESADIKGEPHGLENMELRSLELSVVEPQPVFEASGAPDIYSSNKDLPPETPGAEDKGKSSKTKPFRCKPCQYEAESEEQFVHHIRVHSAKKFFVEESAEKQAKARESGSSTAEEGDFSKGPIRCDRCGYNTNRYDHYTAHLKHHTRAGDNERVYKCIICTYTTVSEYHWRKHLRNHFPRKVYTCGKCNYFSDRKNNYVQHVRTHTGERPYKCELCPYSSSQKTHLTRHMRTHSGEKPFKCDQCSYVASNQHEVTRHARQVHNGPKPLNCPHCDYKTADRSNFKKHVELHVNPRQFNCPVCDYAASKKCNLQYHFKSKHPTCPNKTMDVSKVKLKKTKKREADLPDNITNEKTEIEQTKIKGDVAGKKNEKSVKAEKRDVSKEKKPSNNVSVIQVTTRTRKSVTEVKEMDVHTGSNSEKFSKTKKSKRKLEVDSHSLHGPVNDEESSTKKKKKVESKSKNNSQEVPKGDSKVEENKKQNTCMKKSTKKKTLKNKSSKKSSKPPQKEPVEKGSAQMDPPQMGPAPTEAVQKGPVQVEPPPPMEHAQMEGAQIRPAPDEPVQMEVVQEGPAQKELLPPVEPAQMVGAQIVLAHMELPPPMETAQTEVAQMGPAPMEPAQMEVAQVESAPMQVVQKEPVQMELSPPMEVVQKEPVQIELSPPMEVVQKEPVKIELSPPIEVVQKEPVQMELSPPMGVVQKEPAQREPPPPREPPLHMEPISKKPPLRKDKKEKSNMQSERARKEQVLIEVGLVPVKDSWLLKESVSTEDLSPPSPPLPKENLREEASGDQKLLNTGEGNKEAPLQKVGAEEADESLPGLAANINESTHISSSGQNLNTPEGETLNGKHQTDSIVCEMKMDTDQNTRENLTGINSTVEEPVSPMLPPSAVEEREAVSKTALASPPATMAANESQEIDEDEGIHSHEGSDLSDNMSEGSDDSGLHGARPVPQESSRKNAKEALAVKAAKGDFVCIFCDRSFRKGKDYSKHLNRHLVNVYYLEEAAQGQE

Variants of: B1
Details: with fbw1a_human BTRC

Effect of a mutation on the interaction, disrupting interaction strength:
S1024A
S1027A
S1030A

— IntAct's records for PubMed 18354483
